Literature values in publication PMC3025320.

How the values were obtained:
C3d C3d (Homo sapiens) = C3d C3d (Homo sapiens) (UniProt P01024); assay: ITC
[1] = biological target: C3d C3d (996-1303) (Homo sapiens) (UniProt P01024); assay: ITC
Chain of C3d C3d (996-1303) (Homo sapiens) (P01024 996-1303): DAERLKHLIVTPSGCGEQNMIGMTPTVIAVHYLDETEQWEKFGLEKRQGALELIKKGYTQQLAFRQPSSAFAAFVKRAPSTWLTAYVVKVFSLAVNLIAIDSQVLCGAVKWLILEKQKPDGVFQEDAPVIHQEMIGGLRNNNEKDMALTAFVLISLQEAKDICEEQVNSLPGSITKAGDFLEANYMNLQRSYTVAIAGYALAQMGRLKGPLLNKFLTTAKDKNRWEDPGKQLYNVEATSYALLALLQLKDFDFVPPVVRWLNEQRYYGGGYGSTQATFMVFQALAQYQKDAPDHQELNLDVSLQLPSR

Chain of C3d C3d (Homo sapiens) (P01024 1002-1303): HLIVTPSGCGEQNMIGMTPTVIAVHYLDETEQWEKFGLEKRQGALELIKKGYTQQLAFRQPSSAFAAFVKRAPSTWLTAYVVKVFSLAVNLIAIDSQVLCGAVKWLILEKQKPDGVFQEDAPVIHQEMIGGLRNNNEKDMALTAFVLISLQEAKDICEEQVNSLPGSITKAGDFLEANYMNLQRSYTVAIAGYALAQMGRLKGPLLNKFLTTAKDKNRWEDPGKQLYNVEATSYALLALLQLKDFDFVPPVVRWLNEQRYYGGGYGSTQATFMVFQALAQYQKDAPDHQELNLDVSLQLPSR
Chain of Efb-C Efb-C (P68799 101-165): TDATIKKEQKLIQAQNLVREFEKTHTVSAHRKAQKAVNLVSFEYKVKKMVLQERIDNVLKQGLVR

| Substance | Kd (C3d C3d (Homo sapiens)) | Kd [1] |
| --- | --- | --- |
| Efb-C Efb-C (from UniProt P68799) | 0.002 µM | – |
| Sbi-III-IV domains III-IV (from UniProt A7X659) | 0.4 µM | – |
| Sbi-III–IV domains III-IV (from UniProt A7X659) | – | 0.4 µM |
| Sbi-IV domain IV (from UniProt A7X659) | 0.36 µM | 0.36 µM |
